# Measurements published in publication PMC4565748 (Molecular immunology, 2015).
# Columns and labels:
# [1] = biological target: T1, complement C3b, site-specifically biotinylated (human, UniProt P01024 23-667; P01024 749-1663, biotin, site-specific (site not given)); assay: SPR
# [2] = biological target: T1, complement C3b, site-specifically …; assay: SPR; remark: listed apart in the source
# [3] = biological target: T1, complement C3b, site-specifically …; assay: AlphaScreen or HTRF
Binder,Kd [1],koff [1],kon [1],Kd [2],Kd [3]
"staphylococcal complement inhibitor SCIN-A, full-length wild type (natural protein) STSLPTSNEYQNEKLANELKSLLDELNVNELATGSLNTYYKRTIKISGQKAMYALKSKDFKKMSEAKYQLQKIYNEIDEALKSKY",0.096 ± 0.016 µM,0.051 s⁻¹,550000 M⁻¹ s⁻¹,0.145 ± 0.056 µM,
SCIN-A.Q49A (natural protein) STSLPTSNEYQNEKLANELKSLLDELNVNELATGSLNTYYKRTIKISGAKAMYALKSKDFKKMSEAKYQLQKIYNEIDEALKSKY,0.069 ± 0.0083 µM,0.051 s⁻¹,760000 M⁻¹ s⁻¹,0.22 ± 0.098 µM,0.12 µM
SCIN-A.R42A (natural protein) STSLPTSNEYQNEKLANELKSLLDELNVNELATGSLNTYYKATIKISGQKAMYALKSKDFKKMSEAKYQLQKIYNEIDEALKSKY,6.6 ± 0.62 µM,0.58 s⁻¹,89000 M⁻¹ s⁻¹,8.5 ± 0.12 µM,14 µM
SCIN-A.R42A.Q49A (natural protein) STSLPTSNEYQNEKLANELKSLLDELNVNELATGSLNTYYKATIKISGAKAMYALKSKDFKKMSEAKYQLQKIYNEIDEALKSKY,,,,15 µM,14 µM
